Results from FireProtDB.

Settings: whole UniProt chain shown
[1] = Bos taurus, pH 7.2, Thermal, DSC, phosphate 20 mM, reversible: yes (partial)
[2] = Bos taurus, pH 7.4, Thermal, DSC, potassium phosphate 20 mM, reversible: Yes (65%)
[3] = Equus caballus, pH 4, 25 °C, GdnHCl, CD, Citrate 50 mM
[4] = Equus caballus, pH 4, 25 °C, GdnHCl, CD, Formate 50 mM
[5] = Equus caballus, pH 4, 25 °C, Urea, CD, Citrate 50 mM
[6] = Equus caballus, pH 4, 25 °C, Urea, CD, Formate 50 mM
[7] = Escherichia coli (strain K12), pH 7.5, 10 °C, Urea, CD, LcrH
[8] = Escherichia coli (strain K12), pH 7.5, 20 °C, Urea, CD, LcrH
[9] = Bos taurus, pH 7, Thermal, DSC, Potassium phosphate 67 mM, MgCl2 1 mM
[10] = Bos taurus, pH 6.7, Thermal, DSC, phosphate 10 mM, MgCl2 0.5 mM, reversible: No
[11] = Escherichia coli (strain K12), pH 7, Thermal, DSC, Potassium phosphate 50 mM, KCl 0.5 M, reversible: no
[12] = Bos taurus, pH 6, Thermal, DSC, Sodium phosphate 50 mM, NaCl 200 mM, reversible: yes
[13] = Comamonas testosteroni, pH 7, 25 °C, Urea, Fluorescence, phosphate 25 mM, reversible: yes

B1: Chemotaxis protein CheY wild type, P0AE67 (protein)
chain: MADKELKFLVVDDFSTMRRIVRNLLKELGFNNVEEAEDGVDALNKLQAGGYGFVISDWNMPNMDGLELLKTIRADGAMSALPVLMVTAEAKKENIIAAAQAGASGYVVKPFTAATLEEKLNKIFEKLGM
B1 gave an unfolding free energy (Escherichia coli (strain K12), pH 7, 25 °C, Urea, Fluorescence, Cacodylate 100 mM) of 5.6 kcal/mol.

B2: Alpha-crystallin A chain wild type, P02470 (protein)
chain: MDIAIQHPWFKRTLGPFYPSRLFDQFFGEGLFEYDLLPFLSSTISPYYRQSLFRTVLDSGISEVRSDRDKFVIFLDVKHFSPEDLTVKVQEDFVEIHGKHNERQDDHGYISREFHRRYRLPSNVDQSALSCSLSADGMLTFSGPKIPSGVDAGHSERAIPVSREEKPSSAPSS
With B2 the unfolding free energy (Bos taurus, pH 5, 20 °C, Urea, Fluorescence, Sodium acetate 50 mM) was 8.46 kcal/mol, the Tm [1] was 45.6 °C and the “unfolding enthalpy (calorimetric)” value [1] was 98 kcal/mol. The “unfolding enthalpy (van 't Hoff)” value [1] was 91 kcal/mol, the Tm [2] was 59.8 °C and the “heat capacity change of unfolding” value [2] was 1.36 kcal/mol/K. The “unfolding enthalpy (calorimetric)” value [2] was 80.3 kcal/mol and the “unfolding enthalpy (van 't Hoff)” value [2] was 78.6 kcal/mol.

B3: Beta-lactoglobulin-1 wild type, P02758 (protein)
chain: MKCLLLALGLALMCGIQATNIPQTMQDLDLQEVAGKWHSVAMAASDISLLDSESAPLRVYIEKLRPTPEDNLEIILREGENKGCAEKKIFAEKTESPAEFKINYLDEDTVFALDTDYKNYLFLCMKNAATPGQSLVCQYLARTQMVDEEIMEKFRRALQPLPGRVQIVPDLTRMAERCRI
B3 showed a denaturant m value [3] of 4.74 kcal/mol/M, an unfolding free energy [3] of 10.1 kcal/mol and a denaturant m value [4] of 1.54 kcal/mol/M. For the same protein, the unfolding free energy [4] was 3.92 kcal/mol, the denaturant m value [5] was 2.9 kcal/mol/M and the unfolding free energy [5] was 9.83 kcal/mol. The denaturant m value [6] was 0.74 kcal/mol/M and the unfolding free energy [6] was 2.9 kcal/mol.

B4: Aspartate aminotransferase wild type, P00509 (protein)
chain: MFENITAAPADPILGLADLFRADERPGKINLGIGVYKDETGKTPVLTSVKKAEQYLLENETTKNYLGIDGIPEFGRCTQELLFGKGSALINDKRARTAQTPGGTGALRVAADFLAKNTSVKRVWVSNPSWPNHKSVFNSAGLEVREYAYYDAENHTLDFDALINSLNEAQAGDVVLFHGCCHNPTGIDPTLEQWQTLAQLSVEKGWLPLFDFAYQGFARGLEEDAEGLRAFAAMHKELIVASSYSKNFGLYNERVGACTLVAADSETVDRAFSQMKAAIRANYSNPPAHGASVVATILSNDALRAIWEQELTDMRQRIQRMRQLFVNTLQEKGANRDFSFIIKQNGMFSFSGLTKEQVLRLREEFGVYAVASGRVNVAGMTPDNMAPLCEAIVAVL
B4 showed a denaturant m value [7] of 3.4 kcal/mol/M, an unfolding free energy [7] of 24.4 kcal/mol and a denaturant m value [8] of 4.8 kcal/mol/M. It also gave an unfolding free energy [8] of 12 kcal/mol and an unfolding free energy (Escherichia coli (strain K12), pH 7.5, 25 °C, Urea, enzyme activity, potassium phosphate 20 mM) of 10 kcal/mol.

B5: Inorganic pyrophosphatase wild type, P0A7A9 (protein)
chain: MSLLNVPAGKDLPEDIYVVIEIPANADPIKYEIDKESGALFVDRFMSTAMFYPCNYGYINHTLSLDGDPVDVLVPTPYPLQPGSVIRCRPVGVLKMTDEAGEDAKLVAVPHSKLSKEYDHIKDVNDLPELLKAQIAHFFEHYKDLEKGKWVKVEGWENAEAAKAEIVASFERAKNK
In the case of B5, the Tm (Escherichia coli (strain K12), pH 7, Thermal, CD, HEPES 20 mM, MgCl2 5 mM) is reported as 84 °C and the Tm (Escherichia coli (strain K12), pH 7, Thermal, CD, HEPES 20 mM) is reported as 58 °C.

B6: Rhodopsin wild type, P02699 (protein)
chain: MNGTEGPNFYVPFSNKTGVVRSPFEAPQYYLAEPWQFSMLAAYMFLLIMLGFPINFLTLYVTVQHKKLRTPLNYILLNLAVADLFMVFGGFTTTLYTSLHGYFVFGPTGCNLEGFFATLGGEIALWSLVVLAIERYVVVCKPMSNFRFGENHAIMGVAFTWVMALACAAPPLVGWSRYIPEGMQCSCGIDYYTPHEETNNESFVIYMFVVHFIIPLIVIFFCYGQLVFTVKEAAAQQQESATTQKAEKEVTRMVIIMVIAFLICWLPYAGVAFYIFTHQGSDFGPIFMTIPAFFAKTSAVYNPVIYIMMNKQFRNCMVTTLCCGKNPLGDDEASTTVSKTETSQVAPA
For B6, the Tm [9] was 71.7 °C and the “unfolding enthalpy (calorimetric)” value [9] was 172 kcal/mol.

B7: Tubulin--tyrosine ligase wild type, P38584 (protein)
chain: MYTFVVRDENSSVYAEVSRLLLATGHWKRLRRDNPRFNLMLGERNRLPFGRLGHEPGLMQLVNYYRGADKLCRKASLVKLIKTSPELAESCTWFPESYVIYPTNLKTPVAPAQDGIHPPLHSSRTDEREFFLASYNRKKEEGEGNVWIAKSSAGAKGEGILISSDATELLDFIDNQGQVHVIQKYLERPLLLEPGHRKFDIRSWVLVDHQFNIYLYREGVLRTASEPYHMDNFQDKTCHLTNHCIQKEYSKNYGKYEEGNEMFFEAFNRYLTSALNITLESSILLQIKHIIRSCLMSVEPAISTKHLPYQSFQLFGFDFMVDEELKVWLIEVNGAPACAQKLYAELCQGIVDIAIASVFPPPDAEQQPPQPATFIKL
With B7 the Tm [10] was 54.8 °C and the “unfolding enthalpy (calorimetric)” value [10] was 173 kcal/mol.

B8: Protein GrpE wild type, P09372 (protein)
chain: MSSKEQKTPEGQAPEEIIMDQHEEIEAVEPEASAEQVDPRDEKVANLEAQLAEAQTRERDGILRVKAEMENLRRRTELDIEKAHKFALEKFINELLPVIDSLDRALEVADKANPDMSAMVEGIELTLKSMLDVVRKFGVEVIAETNVPLDPNVHQAIAMVESDDVAPGNVLGIMQKGYTLNGRTIRAAMVTVAKAKA
B8 gave a Tm (Escherichia coli (strain K12), pH 7, Thermal, CD, potassium phosphate 25 mM, reversible: yes) of 48 °C and a Tm (Escherichia coli (strain K12), pH 7, Thermal, DSC, potassium phosphate 25 mM, reversible: yes) of 48 °C.

B9: NADP-dependent isopropanol dehydrogenase wild type, P25984 (protein)
chain: MKGFAMLGINKLGWIEKERPVAGSYDAIVRPLAVSPCTSDIHTVFEGALGDRKNMILGHEAVGEVVEVGSEVKDFKPGDRVIVPCTTPDWRSLEVQAGFQQHSNGMLAGWKFSNFKDGVFGEYFHVNDADMNLAILPKDMPLENAVMITDMMTTGFHGAELADIQMGSSVVVIGIGAVGLMGIAGAKLRGAGRIIGVGSRPICVEAAKFYGATDILNYKNGHIVDQVMKLTNGKGVDRVIMAGGGSETLSQAVSMVKPGGIISNINYHGSGDALLIPRVEWGCGMAHKTIKGGLCPGGRLRAEMLRDMVVYNRVDLSKLVTHVYHGFDHIEEALLLMKDKPKDLIKAVVIL
B9 showed a Tm (Clostridium beijerinckii, pH 6.8, Thermal, CD, Na/K phosphate 50 mM) of 65.1 °C.

B10: L-asparaginase 2 wild type, P00805 (protein)
chain: MEFFKKTALAALVMGFSGAALALPNITILATGGTIAGGGDSATKSNYTVGKVGVENLVNAVPQLKDIANVKGEQVVNIGSQDMNDNVWLTLAKKINTDCDKTDGFVITHGTDTMEETAYFLDLTVKCDKPVVMVGAMRPSTSMSADGPFNLYNAVVTAADKASANRGVLVVMNDTVLDGRDVTKTNTTDVATFKSVNYGPLGYIHNGKIDYQRTPARKHTSDTPFDVSKLNELPKVGIVYNYANASDLPAKALVDAGYDGIVSAGVGNGNLYKSVFDTLATAAKTGTAVVRSSRVPTGATTQDAEVDDAKYGFVASGTLNPQKARVLLQLALTQTKDPQQIQQIFNQY
Protein B10 has an unfolding free energy (Escherichia coli (strain K12), pH 7.4, 25 °C, Urea, Fluorescence, Tris-HCl 50 mM) of 11.5 kcal/mol.

B11: DNA-Binding protein G5P wild type, P69542 (protein)
chain: MIKVEIKPSQAQFTTRSGVSRQGKPYSLNEQLCYVDLGNEYPVLVKITLDEGQPAYAPGLYTVHLSSFKVGQFGSLMIDRLRLVPAK
B11 showed an unfolding free energy (Enterobacteria phage fd, pH 7, 25 °C, GdnHCl, CD, MOPS 0.05 M, NaCl 0.1 M, reversible: yes) of 16.3 kcal/mol.

B12: Shikimate kinase 2 wild type, P10880 (protein)
chain: MTEPIFMVGARGCGKTTVGRELARALGYEFVDTDIFMQHTSGMTVADVVAAEGWPGFRRRESEALQAVATPNRVVATGGGMVLLEQNRQFMRAHGTVVYLFAPAEELALRLQASPQAHQRPTLTGRPIAEEMEAVLREREALYQDVAHYVVDATQPPAAIVCELMQTMRLPAA
In the case of B12, the “denaturant midpoint (higher = more stable)” value (Dickeya chrysanthemi, pH 7.6, 25 °C, Urea, Fluorescence, Tris-HCl 35 mM, KCl 5 mM) is reported as 2.1 M.

B13: DNA-binding transcriptional dual regulator CRP wild type, P0ACJ8 (protein)
chain: MVLGKPQTDPTLEWFLSHCHIHKYPSKSTLIHQGEKAETLYYIVKGSVAVLIKDEEGKEMILSYLNQGDFIGELGLFEEGQERSAWVRAKTACEVAEISYKKFRQLIQVNPDILMRLSAQMARRLQVTSEKVGNLAFLDVTGRIAQTLLNLAKQPDAMTHPDGMQIKITRQEIGQIVGCSRETVGRILKMLEDQNLISAHGKTIVVYGTR
With B13 the Tm [11] was 66.4 °C, the “heat capacity change of unfolding” value [11] was 0.42 kcal/mol/K and the “unfolding enthalpy (calorimetric)” value [11] was 131 kcal/mol. The “unfolding enthalpy (van 't Hoff)” value [11] was 231 kcal/mol, the unfolding free energy (Escherichia coli (strain K12), pH 7.9, 20 °C, GdnHCl, CD, Tris-HCl 50 mM, KCl 0.1 M, reversible: yes) was 7.2 kcal/mol and the unfolding free energy (Escherichia coli (strain K12), pH 7.9, 20 °C, Thermal, CD, Tris-HCl 50 mM, KCl 100 mM, reversible: yes) was 7.32 kcal/mol.

B14: Ribonuclease pancreatic wild type, P61823 (protein)
chain: MALKSLVLLSLLVLVLLLVRVQPSLGKETAAAKFERQHMDSSTSAASSSNYCNQMMKSRNLTKDRCKPVNTFVHESLADVQAVCSQKNVACKNGQTNCYQSYSTMSITDCRETGSSKYPNCAYKTTQANKHIIVACEGNPYVPVHFDASV
In the case of B14, the Tm [12] is reported as 47.7 °C, the “heat capacity change of unfolding” value [12] is reported as 2 kcal/mol/K and the “unfolding enthalpy (calorimetric)” value [12] is reported as 107 kcal/mol.

B15: Steroid Delta-isomerase wild type, P00947 (protein)
chain: MNTPEHMTAVVQRYVAALNAGDLDGIVALFADDATVEDPVGSEPRSGTAAIREFYANSLKLPLAVELTQEVRAVANEAAFAFTVSFEYQGRKTVVAPIDHFRFNGAGKVVSMRALFGEKNIHAGA
Protein B15 has a denaturant m value [13] of 4 kcal/mol/M and an unfolding free energy [13] of 22 kcal/mol.

B16: Malate dehydrogenase wild type, P80040 (protein)
chain: MRKKISIIGAGFVGSTTAHWLAAKELGDIVLLDFVEGVPQGKALDLYEASPIEGFDVRVTGTNNYADTANSDVIVVTSGAPRKPGMSREDLIKVNADITRACISQAAPLSPNAVIIMVNNPLDAMTYLAAEVSGFPKERVIGQAGVLDAARYRTFIAMEAGVSVEDVQAMLMGGHGDEMVPLPRFSTISGIPVSEFIAPDRLAQIVERTRKGGGEIVNLLKTGSAYYAPAAATAQMVEAVLKDKKRVMPVAAYLTGQYGLNDIYFGVPVILGAGGVEKILELPLNEEEMALLNASAKAVRATLDTLKSL
Work on B16 yielded a Tm (Chloroflexus aurantiacus (strain ATCC 29366 / DSM 635 / J-10-fl), pH 7.5, Thermal, CD, potassium phosphate 10 mM, reversible: No) of 67.8 °C.
